Test: yeast display, Sf9 membrane polyspecificity reagent, FACS + sequencing; frameworks hold sequencing errors
Procedure, shortened: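 After 36–48 hours of galactose induction, yeast (Saccharomyces cerevisiae BJ5465) displaying a synthetic nanobody library were stained at 4 °C for 1 hour with 10% biotinylated, detergent-solubilized Sf9 membrane reagent. Streptavidin microbeads enriched the stained cells before FACS sorting into low and high (top ~1%) gates on anti-HA and streptavidin fluorescence. Each clone's polyreactivity label reflects its gate of origin.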

Row | Sequence | polyreactivity (PSR sort gate)
1 | QVQLVESGGGLVQAGGSLRLSCAASGSIFAVYAMGWYRQAPGKERELVAVITRSGGSTYYADSVKGRFTISRDNAKNTVYLQMNSLKPEDTAVYYCAARTGYGYTRYEYWGQGTQVTVSS | high polyreactivity
2 | QVQLVESGGGLVQAGGSLRLSCAASGSTFVINAMGWYRPAPGKERELVARISSSGGRTDYADSVKGRFTISRDNAKNTVYLQMNSLKPEDTAVYYCAAATWLIPYTWRDPSQYNYWAQGTQVTVSS | low polyreactivity
3 | QVQLQESSGGLVQAGGSLRMSCAASGTIFNFHIMGWYRQAPGKEREFVAAISYGTSTYYADSVKGRFTISRDNAKNTVYLQMNSQKPEDTAVYYCAVFDYLEVYCWYWGQGTQVTVSS | low polyreactivity
4 | QVQLVESGGGLVQAGGSLRLSCAASGITFSFYAMGWYRQAPGKERELVAGITRSGGDTYYADSVKGRFTISRDNAKNTVYLQMNSLKPEDTAVYYCAAAWFFYRRQYTFFAGRMDYWGQGTQVTVSS | high polyreactivity
5 | QVQLVESGGGLVQAGGSLRLSCAASGFTFQPNAMGWYRQAPGKERELVAAITWSTGRTYYADSVKGRFTISRDNAKNTVYLQMNSLKPEDTAVYYCNKRKNLLHSFEYDYWGQGTQVTVSS | low polyreactivity
6 | QVQLVDSGGGLVQAGGSLRLSCAASGFTFRYYAMGWYRKAPGNERELVAGISWSGSRTYYADSVKGRFTISRDNAKNTVYLQMNSLKPEDTAVYFCAKVNSYGPVPDRYDYWGQGTQVTVSS | high polyreactivity
7 | QVQLVESGGGLVQAGGSLRLSCAASGRIFTWNARGWYRQAPGKERELVARISSGTRTNYADSVKGRFTISRDNAKNTVYLQMYSLKPEDTAVYYCAAAAKRTDAYHNRRYYWGQGTQVTVSS | high polyreactivity
8 | QVQLVESGGGLVQAGGSLRLSCAASGRILIGYTMGWYRQAPGTERELVARNNYSGGSTYYADSVKGRFTISRDISKNTVYLQMNSLKPEESGDYYCAADVRRGYYTWPPRRVYYWGQGTQVTVSS | high polyreactivity
9 | QVQLVESGGGLVQAGGSLRLSCAASGRSFGLYVMGWYRQAPGKERELVAAITGVGSTKYADSVKGRFTISRDNAKNTVYLQMNSLKPEDTEVYYCAKRYLYDRRHAEYWAANDYWGQGTQVTVSS | low polyreactivity
10 | QVQLVESGGGLVQAGGSLRLSCAASGRTFFHYAMGWYRQAPGKERELVAAISYRGTSTYYADSVKGRFTISRDNAKNTVYLQMISLKPEDTAVYYCNAYSTRCGWSYRGDSWGQGTQVTVSS | high polyreactivity
11 | QVQLVESGGGLVQAGGSLRLSCAPSGFIFSRYAMGWYRQAPGKERELVATITSSGGSTYYADSVKGRFTISRDNAKNTVYLQMNSLKPEDTAVYYCNAKISIRWHYGYYYWGQGTQVTVSS | high polyreactivity
12 | QVQLVESGGGLVQAGGSLRLSCAASGFIYRVYAIGWYRQAPGKERELVAAITGNGVSTYYADSVKVRFTISRDNAKNTVYLQMNSLKPEDTAVYYCATYGRRWYSSRRLDYWGQGTQVTVSS | low polyreactivity
13 | QVQLVESGGGLVQAGGSLRLSCAASGFIFTKYTMGWYRQAPGKERELVAAITGRGTSTYADSVKGRFTISRDNAKNTVYLPMNSLIPEDTAVYYCAAVGWFAVFLFSDINGYYLGQGTQVTVSS | low polyreactivity
14 | QVQLVESGGGLVQAGGSLRLSCAASGFTFVRYAMGWYRQAPGKERELVAAISSSGGSTYYADSVKGRFTISRDNAKNTVYLQMNSLKPEDTAVYYCAARPYARYSRNIDGYEYWGQGTQVTVSS | high polyreactivity
15 | QVQLEESGGGLVQAGGSLRLSCAASVSIFFVNAMGWYRQAPGKERELVASISRDGSTNYADSVKGRFTISRDNAKNTVYLQMNSLKPEVTAVYYCNGLSADWYPEEDYWGQGTQVTVSS | low polyreactivity
16 | QVQLVESGGGLVQAGGSLRLSCAASGRTFYKYAKGWYRQAPGKERELVAAISWSGGSTYYADSVKGRFTISRDNAKNTVYLLMKSLKPEDTAVYYSNRASYPFVKPRYECWGQGTQVTVSS | high polyreactivity
17 | QVQLVESGGGLVQAGGSLRLSCAASGITFDYYGMGWYRQAPGKERALCASITSGGSTNYADSVKGRFTISRDNAKNSVYLQMNSLKPEDTAVYYCAADGYGGYYRGTYYTVYFWGQGTQVTVSS | low polyreactivity
18 | QVQLVESGGGLVQAGGSLRVSCAASGSIFQANAMGGYRQAPGKERELVAASRWSGGSTNYPDSVKGRFSISRDNAKNTVYLPMNSLKPEDTAVYYCAAKRFSSPYWEYYWGQGTQVTVSS | high polyreactivity
19 | QVQLVESGGGLFQAGGSLRLSCASSGFIFVRYAMGWYIQAPGKERELVAGINSGGSTSYADSVKGRFTISRDNAKNSVYLQMNSLKPEDTAVYYCAAAKFRRGTRYYYCGQGTQVTVSS | high polyreactivity
20 | QVQLVESGGGLVQAGGSLRLICAASGSIFQFYAMGWYRQAPGKERELVAVITTSGVSTYYADSVKGRFTISRDNAKNTDYLQMNSLKPEDTAVYYCAADDYYLAGDYWGQGTQVTVSS | low polyreactivity
21 | QVQLVESGGGLVQAGGSLRISCAASGSIFGYNTMGWYRQAPGKERELVAAIRGSDSSTYYADSVKGRFTISRDNAKNTVYLQMNSVIPEDTAVYYCAAKYYWGQGTQVTVSS | high polyreactivity
22 | QVQLVESGGGLVQAGGSLRLSCAASGRIFWLNAMGWYRQAPGKEREFVASITYGSDSTYYADSVKGRFTISRDNAKNTVYLHMNSLKPEDTAVYYCNREGWHYGPYGYWGQGTQVTVSS | low polyreactivity

Row | Sequence | polyreactivity (PSR sort gate)
23 | QVQLVESGGGLVQAGGSLRLSCAASGSIFEYYAMGWYREAPGKERELVAAITSSGASTYYADSVKGHFTISRDNAKNSVYLQMNSLKPEDTAVYYCAKEVIRYSQYIFDYWGQGTQVTVSS | low polyreactivity
24 | QVQLVESGGGLVQAGGSLRLSCAASGSTFKYYAMGWYRQAPGKEMELVAAIRGGGSTNYADSVTGPFTISRDNAKNTVYLQMNSLKPEDTAVYYCAARYGWYRGYNYWGQGTQVTVSS | high polyreactivity
25 | QVQLVESGGGLVQAGGSLRLSCAASGITFYVNAMGWYRQAPGKERELVAAISNGGSTNYADSVKGRFTISRDNAKNTVYLQMNSLKPEDTAVYYCAARPSYGRYRYYYWGQGTQVTVSS | high polyreactivity
26 | QVQLVESGGGIVQAGGSLRLSCAASGSIFYVYAMGWYRQAPGKERELVAAIYSGASTYYADSVKGRFTISRDNAKNTVYLQMNSLKPEDTAVYYCAKRWRRRFVDVWSLYDYWGQGTQVTVSS | low polyreactivity
27 | QVQLVESGGGLDQAGGSLRLSCAASGLIFYDKMGWYRQAPRKERELVAAISSSCGSTSYADSVKGRFTISRDNAKHTVYLQMNSLKPEDTAVYYCAADSYPAYLGFVGFDYWGQGTQVTVSS | low polyreactivity
28 | QVQLVESGGGLVQAGGSLRLSCAASGSIFGTYAMGWYRQAPGKERELVAAISFIGGDTYYADSVKGRFTISRDNAKNTVYLQMNSLKPEDTAVYYCAADRELSGYGGEYWGQGTQVTVSS | low polyreactivity
29 | QVQLVESGGGLVQAGGSLRLSCAASGSILNNYAMGWYRQAPGKERELVAAISSSGGTNYADSVKGRFKISRDNAKNTVYLQMNSLKPEDTAVYYCAKESLYQYDYWGQGTQVTVSS | low polyreactivity
30 | QVQLVESGGGLVQAGGSLRLSCAASGSIFYFYAMGWYRQAPGKERELVAAISWSGGSTYYADSVKGRFTISRDNAKNTVYLQMNSLKPEDTAVYYCNAADYWYWENDYWGQGTQVTVSS | low polyreactivity
31 | QVQLVESGGGLVQAGGSLRLSCAASGFIFWSNAMGWYRQAPGKERELVAAISWSGGSTYYADSVKGRFTISRDNAKNTVYLQMNSLKQEDTAVYYCAAEFWGWDWDLEYWGQGTQVTVSS | high polyreactivity
32 | QVQLVESGGGLVQAGGSLRLICAASGRTFEDNAMGWYRQAPGKERELVAAISSDGSRNYADSVKGRFTISRDNAKNTVYLQMNSLKPEDTAVYYCNATVYWPYDWGTSDYWGQGTQVTVSS | low polyreactivity
33 | QVQLVESGGGLVQAGGSLRLSCAASGITFVYYAMGWYRQAPGKDRELVAAITSTGGSTYYADSVKGRFTISRDNAKNTVYLQMNSLKPEDTAVYYCAAVPRGTQGAMDYWGQGTQVTVSS | low polyreactivity
34 | QVQLVESGGGLVQAGGSLRLSCAASGSIFYLYAMGWYRQAPGKEREFVAAITSSSGSTHYADSVKGRFTISRDNAKNTVYYQMNSLKPEDTAVYYCAKDYGPWTYDYWGQGTQVTVSS | low polyreactivity
35 | QVQLVESGGGLVQAGCSLRLSCAASGRTFCYNSMGLYRQAPGKERELVAAISTSGGSTYYADSVKGRFTISRDNAKNTVYLQMNSLKPEDSAVYSCAADSHRSFSLYAYDSWGLGTQVTVSS | low polyreactivity
36 | QVQLLESGGGLVQAGGSLRLSCAASGFTFYRYAMGWYRQAPGKERELVAVISGSGTSTYYADSVKGRFTISRDIAKNTVYLQMNSLKQEDTAVYYCAASQSIFSGHVRYRVDYDSWGQGTQVSVSS | high polyreactivity
37 | QVQLVESGGGLVQAGGSLRLSCAASGITFWANAMGWERQAPGKERELVASIRSSGGSTYYADSVKGRFTISRDNAKNTVYLQMYSLKPEDTAVYYCYAKRTGPWFLHVPVYYWGQGTQVTVSS | low polyreactivity
38 | QVQLVESGGGLVQAGGSLRLSCAASGRTFRYYAMGWYRKAPGKERELVASIRGGGGTNYADSVKGRFTISRDNAKNTVYLQMNSLKPEDTAVYFCAASVGYSRVWLDYWGQGTQVTVSS | high polyreactivity
39 | QVQLVESGGGLVQAGGSLRLSCAASGSTFYYYAMGWYRQAPGKERELVAVITRGGGTYYADSVKGRFTISRDNAKNTVYLQMNSLKPEDTAVYYCNARQRSSTRKGYNYWGQGTQVTVSS | high polyreactivity
40 | QVQLVESGGGLVQAGGSLRLSCAASGRIFQYNAMGWYRQAPGKERALVAAIRRGGGSTYYADSVKGRFTISRDNAKNTVYLQMNSLKPEDTAVYYCAARRKRVSFYPEYDYWGQGTQVTVSS | low polyreactivity
41 | QGQLQESGGGLVKAGGSLRLSCPASGNISNHKDMGWYRQAPGKESEFVAGITAGGITNYADSVTGRFTICRDNAKNTVDLVMNSLKPEDTAVYYSAAYPDYAKSYGYWGQGTQATVSS | low polyreactivity
42 | QVQLEESGGGLVQAGGSLRLSCAASGRIFYRNAMGWYRQAPGKERELVAAISSSAGSTYYADSVKGRFTISRDHAKNTVYLQMNSLKPEDTAVYYCAAGSGTFVTRYRYDYWGQGTQVTVSS | high polyreactivity
43 | QVQLVESGGGLVQAGGSLRLSCAASGSTLSVNAMGWYRQAPGKERELVAAIDFDGGDTYYADSVKGRFTISRDNAKNTVYLQMNSLKPEDTAVYYCAADIGGQYDYLADDYWGQGTQVTVSS | low polyreactivity

— the nanobody polyreactivity screen of Harvey et al. (2022)
